Assay results: patent US20240101667A1, “METHODS FOR IDENTIFYING LILRB-BLOCKING ANTIBODIES” (THE BOARD OF REGENTS OF THE UNIVERSITY OF TEXAS SYSTEM, priority 2020, published 2024)

What was measured:
[1] = system: MLL-AF9 AML cells; test: CFU assay of mouse MLL-AF9 AML cells; format: cell-based; settings: for colony formation by MLL-AF9 cells: screen of the high-affinity IgGs
Text: (§1) FIGS. 7A-N. Blocking anti-LILRB3 antibody prevents monocytic AML development. (FIG. 7A) Epitope binning of 30 high-affinity IgGs. (FIG. 7B) CFU assay of mouse MLL-AF9 AML cells in the presence of above IgGs (n=3 independent experiments). (FIG. 7C) Binding affinities of the two IgGs from bin #3. (FIG. 7D) Upper: Schematic of treatment. Lower: Percentages of GFP^+ MLL-AF9 mouse AIL cells in peripheral blood (PB), bone marrow (BM), spleen (SPL), and liver (LV) of mice transplanted with AML cells expressing B3-FL or B3delICD and injected with IgG or anti-LILRB3 #1 N297A (n=3 independent mice). (FIG. 7E) Overall survival of mice transplanted with indicated AML cells as above. (FIG. 7F) CFU assay of MLL-AF9 mouse AML cells expressing B3-FL or B3delICD in the presence of IgG or anti-LILRB3 #1 N297A (n=3 independent experiments) (FIG. 7G) Upper: Schematic of treatment. Recipient mice were injected with mouse IgG or anti-mCD8 to deplete CD8 T cells. Lower: Percentages of GFP^+ MLL-AF9 mouse AML cells in peripheral blood (PB), bone marrow (BM), spleen (SPL), and liver (LV) of mice transplanted with AML cells expressing B3-FL or B3delICD and injected with IgG or anti-LILRB3 #1 LALAPG (n=4 mice). (FIG. 7H) Survival of mice as in panel h (n=4 independent mice). (FIG. 7I) Upper: Schematic of treatment. Lower: Whole-body images of NSG mice transplanted with luciferase-expressing THP-1 cells and treated with IgG or anti-LILRB3 #1 N297A (#1NA). (FIG. 7J) Overall survival of the mice shown in panel h (n=3 independent mice). (FIG. 7K) Upper: Schematic of treatment. Lower: Whole-body images of NSG mice transplanted with luciferase-expressing Molm13 cells, injected with activated T cells, and treated with IgG or #1NA. (FIG. 7L) Luciferase signaling as a function of time in mice treated as described in panel k. (FIG. 7M) Overall survival of mice treated as described in panel k (n=3 independent mice). (FIG. 7N) Analyses of T cells in peripheral blood of mice treated as described in panel 1 at 22 days after Molm13 AML cell transplantation. Upper: Flow cytometry analyses. Lower: Plot of T cell percentages (n=3 independent mice). The data are presented as mean±s.e.m, and p values were calculated by two-tailed t-test except for FIG. 7E, FIG. 7H, FIG. 7J and FIG. 7M by log-rank test.
FIGS. S6A-J. Development of anti-LILRB3 blocking antibodies for suppressing AML development. (FIG. S6a) Upper: Flow chart of strategy for development of fully humanized antibodies against LILRB3. Lower: The identified antibodies were tested in the LILRB3 chimeric receptor reporter cell assay. (FIG. S6b) ELISA results for LILRB3 binders. (FIG. S6c) EC50 values of the anti-LILRB3 antibodies based on ELISA. (FIG. S6d) Affinities of antibodies #32, #33, #67, and #45 to LILRB3 as determined by Octet. (FIG. S6e) Cross-reactivity of the anti-LILRB3 antibodies with LILRAs evaluated with LILRA binding analyses. (FIG. S6f) Cross-reactivity of the anti-LILRB3 antibodies with other LILRBs evaluated with LILRB binding analyses. (FIG. S6g) Interaction with TRAF2 contributes to the effect of LILRB3 on AML development. […] (FIG. S6j) NF-κB signaling target gene expression (measured by qPCR) in THP-1 cells from BM of xenografted NSG mice treated with anti-LILRB3 #1NA or IgG (n=3 individual samples). […]

[2] = system: MLL-AF9 AML cells expressing B3-FL or B3delICD; test: Immuno-competent mice transplanted with MLL-AF9 AML cells expressing B3-FL or B3delICD; format: in vivo, mouse; settings: versus IgG
Text: as §1, with “(FIG. 7N) Analyses of T cells in peripheral blood of mice treated as described in panel 1 at 22 days after Molm13 AML cell transplantation. Upper: Flow cytometry analyses. Lower: Plot of T cell percentages (n=3 independent mice).” left out, “test. […]” for “test.”

[3] = molecular target: T1, LILRB3 (Homo sapiens, UniProt O75022); test: Affinity measurement with Octet RED96; format: binding; settings: compared between the two IgGs of bin 3
Procedure: (§2) Affinity measurement and epitope binning: Affinity measurement and epitope binning were done as described previously (Gui et al., 2019). Briefly, antibody affinity was analyzed with the Octet RED96 instrument. Antibody ([…]) was loaded onto the protein A biosensors then exposed to a series of concentrations of recombinant LILRB3 (0.1-200 nmol/L), and background subtraction was used to correct for sensor drift. ForteBio's data analysis software was used to extract association and dissociation rates assuming a 1:1 binding model. The Kd was calculated as the ratio koff/kon. Epitope binning of anti-LILRB3 rabbit antibodies was performed with an Octet RED96 instrument using a classical sandwich epitope binning assay. In these epitope binning assays, primary antibodies (40 μg/ml) were loaded onto protein A biosensors, and remaining Fc-binding sites on the sensor were blocked with a human non-targeting IgG (200 μg/ml). The sensors were then exposed to the 1 μM LILRB3 diluted in 1× kinetics buffer, followed by the secondary antibodies (40 μg/ml). Raw data were processed using ForteBio's Data Analysis Software 7.0. Antibody pairs were assessed for competitive binding. […]

[4] = molecular target: T1, LILRB3; test: Octet-based epitope binning assay; format: binding; settings: Octet sandwich binning
Procedure: as §2

[5] = system: LILRAs and other LILRBs; test: Cross-reactivity with LILRAs and other LILRBs (binding analyses); parameters: species or system human; settings: versus LILRAs and other LILRBs
Procedure: FIGS. S6A-J. Development of anti-LILRB3 blocking antibodies for suppressing AML development. (FIG. S6a) Upper: Flow chart of strategy for development of fully humanized antibodies against LILRB3. Lower: The identified antibodies were tested in the LILRB3 chimeric receptor reporter cell assay. (FIG. S6b) ELISA results for LILRB3 binders. (FIG. S6c) EC50 values of the anti-LILRB3 antibodies based on ELISA. (FIG. S6d) Affinities of antibodies #32, #33, #67, and #45 to LILRB3 as determined by Octet. (FIG. S6e) Cross-reactivity of the anti-LILRB3 antibodies with LILRAs evaluated with LILRA binding analyses. (FIG. S6f) Cross-reactivity of the anti-LILRB3 antibodies with other LILRBs evaluated with LILRB binding analyses. (FIG. S6g) Interaction with TRAF2 contributes to the effect of LILRB3 on AML development. CFU assay of MLL-AF9 AML cells expressing wild-type LILRB3 or mutant LILRB3 with mutations disrupting TRAF2 binding (AAA, QEE509-511AAA) or disrupting SHP-1/2 interactions (Y596/626F) in the presence of control or anti-LILRB3 antibodies (n=3 wells). […] (FIG. S6j) NF-κB signaling target gene expression (measured by qPCR) in THP-1 cells from BM of xenografted NSG mice treated with anti-LILRB3 #1NA or IgG (n=3 individual samples). The data are presented as mean±s.e.m, and p values were calculated by two-tailed t-test except for FIG. S6i by log-rank test.

B1: anti-LILRB3 #6: anti-LILRB3 antibody which cannot inhibit LILRB3 signaling; B3-6 VH SEQ ID NO: 345, VL SEQ ID NO: 399 (antibody, V domains shown)
VH: QVQLQQSGPGLVKPSQTLSLTCAISGDSVSSNSAAWNWIRQSPSRGLEWLGRTYYRSKWYNNYAVSVKSRITINPDTSKNQFSLQLNSVTPEDTAVYYCARALAGIDGFDVWGQGTTVSVSS
VL: AIQLTQSPSSLSASVGDRITITCRASQSISKYLNWYQQKPGEAPKLLIYAASSLQSGVPSRFSGSGSGTDFTLTISSLQPEDFATYYCQEKDNFGQGTKLEIK
modifications: Synthetic antibody
[1]; FIG. 7b
  inhibition of LILRB3 signaling: cannot inhibit LILRB3 signaling
[2]
  progress of AML with B3-FL and with B3del ICD: suppresses the progresses of both AML with B3-FL and AML with B3del ICD with similar efficacies

B2: #1: fully human anti-LILRB3 blocking IgG, epitope bin 3; B3-1 VH SEQ ID NO: 341, VL SEQ ID NO: 395 (antibody, V domains shown)
VH: EVQLVESGGGVVQPGRSLRLSCAASGFTFSSYGMHWVRQAPGKGLEWVAFIRYDGSNKYYADSVKGRFTISRDNSKNTLYLQMNSLRAEDTAVYYCAKAGFSGWYYYGMDVWGQGTMVTVSS
VL: DIVMTQSPSSLSASVGDRLTITCRASQSISTYLNWYQQKPGKAPKLLIYGASSLQSGVPSRFSGSGSGTDFTLTISSLQPEDFATYFCQQSYGLPLTFGGGTKVDIK
modifications: Synthetic antibody
[3]
  binding affinity: higher affinity than #26
[4]
  LILRB3 epitope bin: third bin
[1]
  colony formation by MLL-AF9 cells: blocked colony formation by MLL-AF9 cells
[5]
  specificity to LILRB3: specific to LILRB3

B3: #26: fully human anti-LILRB3 IgG, epitope bin 3; B3-26 VH SEQ ID NO: 353, VL SEQ ID NO: 407 (antibody, V domains shown)
VH: QVQMVESGGGLVKPGGSLRLSCAASGFTFSDHYLSWIRQAPGKGLEWVSYIDLSGSTVYYGDSVKGRFTISRDNARNSVYLQMNSLRAEDTAVYYCARGHYGLDVWGQGTMVTVSS
VL: NIQMTQSPSTLSASVGDRVTISCRASQSIGTWLAWYQQKPGKAPQLLIYKASSLHSGVPSRFSGSGSGTEFTLTISSLQPDDFATYYCQQYNLYSRTFGQGTKVEIK
modifications: Synthetic antibody
[4]
  LILRB3 epitope bin: third bin
[1]
  colony formation by MLL-AF9 cells: blocked colony formation by MLL-AF9 cells
[5]
  specificity to LILRB3: specific to LILRB3
